B1: Twister Ribozyme (parent)
chain: AACACUGCCAAUGCCGGUCCCAAGCCCGGAUAAAAGUGGAGGGGGCGG

Variants of: B1
Test: self-cleavage, relative activity (ratio to wild type); higher = more cleavage; co-transcriptional
For G16C A23C, the self-cleavage was 0.0636.
For G16C A30G, the self-cleavage was 0.31.
Work on G16C A30U yielded a self-cleavage of 0.741.
Variant G16C A32C has a self-cleavage of 0.536.
Work on G16C A32G yielded a self-cleavage of 0.518.
G16C A32U gave a self-cleavage of 0.456.
For G16C A33G, the self-cleavage was 0.403.
For G16C A34C, the self-cleavage was 0.0817.
For G16C A34G, the self-cleavage was 0.298.
With G16C A35C the self-cleavage was 0.394.
G16C A40G gave a self-cleavage of 0.135.
Variant G16C C19A has a self-cleavage of 0.165.
Variant G16C C19U has a self-cleavage of 0.461.
With G16C C20A the self-cleavage was 0.0672.
Variant G16C C20G has a self-cleavage of 0.104.
Work on G16C C21G yielded a self-cleavage of 0.0586.
G16C C21U gave a self-cleavage of 0.0834.
Variant G16C C25A has a self-cleavage of 0.0993.
In the case of G16C C26A, the self-cleavage is reported as 0.35.
In the case of G16C C27U, the self-cleavage is reported as 0.854.
Variant G16C C46A has a self-cleavage of 0.693.
With G16C C46G the self-cleavage was 0.262.
G16C G17C showed a self-cleavage of 0.0907.
G16C G17U showed a self-cleavage of 0.174.
With G16C G24A the self-cleavage was 0.0685.
For G16C G24C, the self-cleavage was 0.0655.
G16C G28A gave a self-cleavage of 0.194.
Work on G16C G28U yielded a self-cleavage of 0.383.
Variant G16C G29U has a self-cleavage of 0.194.
G16C G36C showed a self-cleavage of 0.0717.
Variant G16C G36U has a self-cleavage of 0.113.
In the case of G16C G38C, the self-cleavage is reported as 0.572.
In the case of G16C G39A, the self-cleavage is reported as 0.28.
In the case of G16C G39C, the self-cleavage is reported as 0.119.
G16C G41C gave a self-cleavage of 0.0971.
Variant G16C G41U has a self-cleavage of 0.103.
In the case of G16C G42A, the self-cleavage is reported as 0.139.
G16C G42C gave a self-cleavage of 0.121.
With G16C G42U the self-cleavage was 0.115.
In the case of G16C G43A, the self-cleavage is reported as 0.148.
With G16C G45A the self-cleavage was 0.161.
G16C G45C gave a self-cleavage of 0.249.
Work on G16C G45U yielded a self-cleavage of 0.379.
Work on G16C U18A yielded a self-cleavage of 0.336.
G16C U18C showed a self-cleavage of 0.114.
Variant G16C U31G has a self-cleavage of 0.663.
G16C U37A gave a self-cleavage of 0.165.
In the case of G16C U37C, the self-cleavage is reported as 0.0928.
Work on G16U yielded a self-cleavage of 1.07.
G16U A22C gave a self-cleavage of 0.925.
Variant G16U A22G has a self-cleavage of 0.21.
Work on G16U A22U yielded a self-cleavage of 0.759.
Variant G16U A23U has a self-cleavage of 0.238.
G16U A30C gave a self-cleavage of 0.804.
In the case of G16U A30U, the self-cleavage is reported as 1.08.
Variant G16U A32G has a self-cleavage of 1.02.
In the case of G16U A32U, the self-cleavage is reported as 1.
Variant G16U A40G has a self-cleavage of 0.206.
Variant G16U C21A has a self-cleavage of 0.137.
G16U C21G showed a self-cleavage of 0.101.
G16U C21U showed a self-cleavage of 0.105.
With G16U C25A the self-cleavage was 0.206.
Work on G16U C25G yielded a self-cleavage of 0.154.
G16U C27A gave a self-cleavage of 0.908.
For G16U C46G, the self-cleavage was 0.963.
For G16U G17C, the self-cleavage was 0.105.
G16U G24A showed a self-cleavage of 0.129.
G16U G24U showed a self-cleavage of 0.0815.
Variant G16U G28A has a self-cleavage of 0.641.
G16U G28C gave a self-cleavage of 1.02.
G16U G29A gave a self-cleavage of 0.946.
G16U G29C gave a self-cleavage of 0.544.
G16U G36A showed a self-cleavage of 0.426.
In the case of G16U G36U, the self-cleavage is reported as 0.124.
Work on G16U G38U yielded a self-cleavage of 0.914.
G16U G39A gave a self-cleavage of 0.595.
G16U G39U gave a self-cleavage of 0.225.
G16U G41A showed a self-cleavage of 0.278.
For G16U G42A, the self-cleavage was 0.26.
Work on G16U G42U yielded a self-cleavage of 0.166.
In the case of G16U G43A, the self-cleavage is reported as 0.203.
G16U G43C showed a self-cleavage of 0.183.
Work on G16U G43U yielded a self-cleavage of 0.313.
With G16U G45C the self-cleavage was 0.554.
G16U G45U gave a self-cleavage of 0.819.
G16U G47A gave a self-cleavage of 0.378.
In the case of G16U G47U, the self-cleavage is reported as 0.653.
G16U U18A gave a self-cleavage of 0.605.
G16U U18G showed a self-cleavage of 0.0727.
In the case of G16U U31G, the self-cleavage is reported as 1.04.
In the case of G16U U37C, the self-cleavage is reported as 0.261.
Variant G17A A22C has a self-cleavage of 0.669.
Variant G17A A22G has a self-cleavage of 0.136.
In the case of G17A A22U, the self-cleavage is reported as 0.258.
Work on G17A A30G yielded a self-cleavage of 0.615.
G17A A30U showed a self-cleavage of 0.695.
G17A A33G gave a self-cleavage of 0.451.
In the case of G17A A34G, the self-cleavage is reported as 0.211.
In the case of G17A A34U, the self-cleavage is reported as 0.137.
For G17A A35U, the self-cleavage was 0.869.
G17A A40C gave a self-cleavage of 0.105.
G17A A40G gave a self-cleavage of 0.171.
G17A A40U showed a self-cleavage of 0.117.
Variant G17A C20U has a self-cleavage of 0.373.
G17A C21G showed a self-cleavage of 0.073.
G17A C25A gave a self-cleavage of 0.164.
With G17A C25G the self-cleavage was 0.0728.
In the case of G17A C25U, the self-cleavage is reported as 0.255.
In the case of G17A C26A, the self-cleavage is reported as 0.78.
Work on G17A C26G yielded a self-cleavage of 0.442.
For G17A C27G, the self-cleavage was 0.243.
Variant G17A C27U has a self-cleavage of 0.403.
G17A G24A gave a self-cleavage of 0.118.
For G17A G28U, the self-cleavage was 0.258.
Variant G17A G38C has a self-cleavage of 0.54.
For G17A G38U, the self-cleavage was 0.468.
Work on G17A G39C yielded a self-cleavage of 0.105.
In the case of G17A G39U, the self-cleavage is reported as 0.165.
Work on G17A G41C yielded a self-cleavage of 0.164.
Work on G17A G42A yielded a self-cleavage of 0.107.
Variant G17A G43C has a self-cleavage of 0.129.
In the case of G17A G43U, the self-cleavage is reported as 0.123.
G17A G44A showed a self-cleavage of 0.671.
With G17A G44C the self-cleavage was 0.733.
With G17A G45C the self-cleavage was 0.278.
Work on G17A G48A yielded a self-cleavage of 0.661.
For G17A U31A, the self-cleavage was 0.715.
G17A U31C showed a self-cleavage of 0.746.
G17A U37C gave a self-cleavage of 0.142.
For G17A U37G, the self-cleavage was 0.175.
G17C A22G gave a self-cleavage of 0.0562.
G17C A32U showed a self-cleavage of 0.109.
G17C A33G gave a self-cleavage of 0.093.
Work on G17C A33U yielded a self-cleavage of 0.0842.
With G17C A34G the self-cleavage was 0.112.
Variant G17C A34U has a self-cleavage of 0.0853.
Work on G17C A35U yielded a self-cleavage of 0.138.
Variant G17C A40C has a self-cleavage of 0.117.
For G17C A40U, the self-cleavage was 0.0929.
Variant G17C C19A has a self-cleavage of 0.0513.
In the case of G17C C19G, the self-cleavage is reported as 0.0591.
Variant G17C C19U has a self-cleavage of 0.105.
With G17C C20G the self-cleavage was 0.0846.
G17C C21A showed a self-cleavage of 0.0572.
With G17C C25A the self-cleavage was 0.0882.
For G17C C25U, the self-cleavage was 0.0911.
Variant G17C C26A has a self-cleavage of 0.286.
With G17C C26U the self-cleavage was 0.17.
In the case of G17C C27G, the self-cleavage is reported as 0.195.
G17C C27U showed a self-cleavage of 0.0804.
G17C C46A showed a self-cleavage of 0.107.
Variant G17C G24A has a self-cleavage of 0.0848.
In the case of G17C G24C, the self-cleavage is reported as 0.0583.
For G17C G24U, the self-cleavage was 0.0734.
With G17C G28A the self-cleavage was 0.069.
G17C G28C gave a self-cleavage of 0.0667.
Work on G17C G28U yielded a self-cleavage of 0.0606.
G17C G29A gave a self-cleavage of 0.0678.
Variant G17C G29U has a self-cleavage of 0.0973.
In the case of G17C G36A, the self-cleavage is reported as 0.0801.
For G17C G38U, the self-cleavage was 0.073.
With G17C G39A the self-cleavage was 0.0934.
With G17C G42U the self-cleavage was 0.0737.
Variant G17C G43C has a self-cleavage of 0.0789.
In the case of G17C G44A, the self-cleavage is reported as 0.109.
In the case of G17C G44C, the self-cleavage is reported as 0.122.
For G17C G45A, the self-cleavage was 0.132.

Reference: the RNAGym collection of RNA variant scans (doi:10.7554/elife.80360)
